In patent US20220064286A1 (Genentech, published 2022):
Substitutions are numbered along the chain they refer to. Names and notes keep the numbering of the source. One block for each binder: values may come before it.

What was measured:
hTIGIT mutant Q53A [1] = molecular target: T1, hTIGIT mutant Q53A (human, UniProt Q495A1); test: SPR (BIACORE), N=2
T1 sequence (TIGIT, looked up): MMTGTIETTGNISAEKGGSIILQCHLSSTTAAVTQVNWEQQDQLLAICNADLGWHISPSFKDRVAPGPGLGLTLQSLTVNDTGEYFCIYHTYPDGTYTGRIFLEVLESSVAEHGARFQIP

[2] = molecular target: T2, mu TIGIT (target named for 10A7 in the heads of Tables 6 and 7) (mu (mouse), UniProt P86176 29-249, limits assumed); test: FACS, CHO cells expressing TIGIT
T2 construct: Only the column head says mu TIGIT; the text describes no mouse TIGIT cells
T2 sequence (looked up): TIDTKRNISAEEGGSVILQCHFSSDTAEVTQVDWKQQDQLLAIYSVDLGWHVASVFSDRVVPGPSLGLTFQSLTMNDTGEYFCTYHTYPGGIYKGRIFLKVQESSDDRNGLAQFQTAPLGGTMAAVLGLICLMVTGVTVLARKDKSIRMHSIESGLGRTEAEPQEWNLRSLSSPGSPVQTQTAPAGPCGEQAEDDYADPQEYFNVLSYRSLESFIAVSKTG

hTIGIT mutant L73A = molecular target: T3, hTIGIT mutant L73A (human, UniProt Q495A1); test: SPR (BIACORE) KD normalized to WT, N=2
T3 sequence (TIGIT, looked up): T1 sequence (TIGIT, looked up) with A32Q, L52A

hTIGIT mutant Y113A = molecular target: T4, hTIGIT mutant Y113A (human, UniProt Q495A1); test: SPR (BIACORE) KD normalized to WT, N=2
T4 sequence (TIGIT, looked up): T1 sequence (TIGIT, looked up) with A32Q, Y92A

hTIGIT mutant Q53A [3] = molecular target: T1, hTIGIT mutant Q53A; test: SPR (BIACORE) KD normalized to WT, N=2
[4] = molecular target: T2, mu TIGIT (target named for 10A7 in the …); test: FACS, PVR-Fc on CHO-TIGIT cells; competitor PVR-Fc
Protocol: These studies were further validated in CHO-TIGIT PVR blocking experiments in which TIGIT-expressing CHO cells were incubated with labeled PVR-Fc fusion protein in the presence of anti-TIGIT antibody or an human IgG1 control (FIG. 4A).

human TIGIT protein = molecular target: T5, human TIGIT protein (human, UniProt Q495A1 22-141, limits assumed); test: SPR (BIACORE) KD normalized to WT, N=2
T5 construct: Recombinant protein (Genentech) used in ELISA screening and as SPR analyte; also called TIGIT antigen
T5 sequence: T1 sequence (TIGIT, looked up) with A32Q

HA-tagged TIGIT = molecular target: T6, HA-tagged TIGIT (human, UniProt Q495A1 22-244); test: TR-FRET, HA-TIGIT with ST-CD226 on CHO cells; competitor CD226
T6 sequence: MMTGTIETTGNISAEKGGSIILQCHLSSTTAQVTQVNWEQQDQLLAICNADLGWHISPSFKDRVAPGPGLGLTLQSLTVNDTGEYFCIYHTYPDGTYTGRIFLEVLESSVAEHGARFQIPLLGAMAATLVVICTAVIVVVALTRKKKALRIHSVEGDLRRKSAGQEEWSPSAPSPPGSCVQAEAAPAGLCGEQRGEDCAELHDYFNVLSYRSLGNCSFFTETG
Source text: To test for the ability of the clones to block the TIGIT-CD226 interaction, TR-FRET (Time-resolved Fluorescence Resonance Energy Transfer) was used. First, human SNAP-tagged (ST) CD226 with non-permeant donor and acceptor fluorophores was expressed and labeled using CHO cells. The human ST-CD226 was co-expressed with HA-tagged TIGIT, in the presence or the absence of the OMT- and SD-derived anti-TIGIT antibody clones.

B3: 4.1D3 (antibody, V domains shown)
VH: QVQLQQSGPGLVKPSQTLSLTCAISGDSVSSNSAAWNWIRQSPSRGLEWLGKTYYRFKWYSDYAVSVKGRITINPDTSKNQFSLQLNSVTPEDTAVFYCTRESTTYDLLAGPFDYWGQGTLVTVSS
VL: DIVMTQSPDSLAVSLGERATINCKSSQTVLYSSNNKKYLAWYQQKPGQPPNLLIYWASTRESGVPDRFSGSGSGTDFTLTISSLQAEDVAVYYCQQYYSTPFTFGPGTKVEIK
notes: OMT rat-derived human antibody; also called 4.1D3.Q1
- Kd (hTIGIT mutant Q53A [1]): 0.8 nM
- Binding affinity drop vs. WT (hTIGIT mutant L73A): 2.6 fold
- Binding affinity drop vs. WT (hTIGIT mutant Y113A): 5.6 fold
- Binding affinity drop vs. WT (hTIGIT mutant Q53A [3]): 1.6 fold
- Binding affinity drop vs. WT (human TIGIT protein): 1 fold

B4: 4.1D3.Q1E (antibody, V domains shown)
VH: B3 VH with Q1E
VL: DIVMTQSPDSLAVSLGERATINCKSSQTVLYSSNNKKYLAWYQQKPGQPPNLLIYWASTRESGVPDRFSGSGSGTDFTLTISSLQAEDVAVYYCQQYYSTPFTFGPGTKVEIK
- IC50 (HA-tagged TIGIT): 45 nM

Results, then the binder that gave them:

- Kd (hTIGIT mutant Q53A [1]): 32 nM
- EC50 [2]: 0.54 nM
- Binding affinity drop vs. WT (hTIGIT mutant L73A): > 11 fold
- Binding affinity drop vs. WT (hTIGIT mutant Y113A): 1.2 fold
- Binding affinity drop vs. WT (hTIGIT mutant Q53A [3]): 0.7 fold
- IC50 [4]: 0.07 nM
B1: 10A7 (antibody, V domains shown)
VH: EVQLVESGGGLTQPGKSLKLSCEASGFTFSSFTMHWVRQSPGKGLEWVAFIRSGSGIVFYADAVRGRFTISRDNAKNLLFLQMNDLKSEDTAMYYCARRPLGHNTFDSWGQGTLVTVSS
VL: DIVMTQSPSSLAVSPGEKVTMTCKSSQSLYYSGVKENLLAWYQQKPGQSPKLLIYYASIRFTGVPDRFTGSGSGTDYTLTITSVQAEDMGQYFCQQGINNPLTFGDGTKLEIKR

- Binding affinity drop vs. WT (human TIGIT protein): 1 fold
- IC50 (HA-tagged TIGIT): 19.3 nM
B2: 7.4A3.C96S.Q1E (antibody, V domains shown)
VH: EVQLVQSGSDLKKPGASVRVSCKASGYTFTSYPMNWVRQAPGHGLEWMGWINTNTGNPTYVQGFTGRFVFSLDTSVNTAYLQISSLKAEDTAVYFCARTGGHTYDSYAFDVWGQGTMVTVSS
VL: DIQLTQSPTFLSASVGDRVTITCRASQVISSSLAWYQQNPGKAPKLLIYAASTLQSGVPSRFSGSGSGTEFTLTISSLQPEDFVTYYCQHLHGYPSNFGQGTKVEIK
notes: also called 7.4A3.Q1E.C96S
